Results from patent US20250346668A1.

Target: Human CD3e/g protein (human) (UniProt P07766)
Experiment: ELISA, coated hCD3e/g

| Binder | EC50 [nM] | OD450 nm at 0.000853 nM [OD450 nm] | OD450 nm at 0.0043 nM [OD450 nm] | OD450 nm at 0.02 nM [OD450 nm] | OD450 nm at 0.11 nM [OD450 nm] | OD450 nm at 0.53 nM [OD450 nm] | OD450 nm at 2.67 nM [OD450 nm] | OD450 nm at 13.3 nM [OD450 nm] | OD450 nm at 66.7 nM [OD450 nm] |
| --- | --- | --- | --- | --- | --- | --- | --- | --- | --- |
| mAb001 (antibody, V domains shown) VH: QVQLQQSGPELVKPGASVKISCKASGYSFTNYYMHWVKQRPGQGLEWIGWTYPGNNNIKYNEKFKGKATLTADTSSSTAYMQLSSLTSEDSAVYYCARDGYGYYFFDYWGQGIILTVSS VL: DIVMSQSPSSLAVSAGEKVTMSCKSSQSLLNNRTRKNYLAWYQQKPGQSPKLLIYWASTRESGVPDRFTGSGSGTDFTLTISSVQAEDLAIYYCKQSYTLRTFGGGTKLAIK | 0.21 | 0.207 | 0.12 | 0.24 | 0.89 | 3.2 | 3.64 | 3.67 | 3.67 |
| mAb007 (antibody, V domains shown) VH: QVQLQQSGPELVKPGASVKISCKASGSTFTDNYIHWVKQRPGQGLEWIGWIYPGSVNIKYNEKFKDKATLTADTSSTTAYMQLSSLSSEDSAIYYCARDISRYYFDYWGQGTTLTVSS VL: DIVMSQSPSSLAVSAGERVTMNCKSSQSLLNSRTRKNYLAWYQQKPGQSPKLLIYWASTRESGVPDRFTGSGSGTDFTLTISSVQAEDLAVYYCKQSFILRTFGGGTKLAIK | 0.22 | 0.123 | 0.111 | 0.27 | 0.76 | 2.96 | 3.39 | 3.47 | 3.41 |
